Entries after “also recorded” stand apart in the source; their conditions may differ. Read-outs that look alike come from different tables or passages of the source.
What was measured:
[1] = molecular target: T1, GPCR135 (Homo sapiens, UniProt Q9NSD7); assay: Radioligand competition binding with 125I-relaxin3, COS-7 cell membranes; set-up: expressed in transfected cells; host or cells: COS-7 (membranes); details: COS-7 membranes, 100 pM radioligand
T1 sequence (Q9NSD7 1-469): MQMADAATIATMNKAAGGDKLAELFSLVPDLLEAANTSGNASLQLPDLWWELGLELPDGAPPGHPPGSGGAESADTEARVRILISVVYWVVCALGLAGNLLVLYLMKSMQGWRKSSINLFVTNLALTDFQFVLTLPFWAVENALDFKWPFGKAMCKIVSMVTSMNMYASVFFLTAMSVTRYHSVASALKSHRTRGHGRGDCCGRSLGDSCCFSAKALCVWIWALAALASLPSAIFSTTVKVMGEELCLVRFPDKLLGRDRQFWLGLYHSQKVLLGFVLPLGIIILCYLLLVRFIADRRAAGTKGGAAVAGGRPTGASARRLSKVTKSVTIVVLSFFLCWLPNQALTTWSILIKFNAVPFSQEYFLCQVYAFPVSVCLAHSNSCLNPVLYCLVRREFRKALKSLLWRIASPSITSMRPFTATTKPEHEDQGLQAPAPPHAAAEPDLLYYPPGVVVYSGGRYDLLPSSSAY
Protocol: Cell membranes from COS-7 cells transiently expressing GPCR142 were incubated with ^125I-relaxin3 either in the presence or absence of various concentrations of different competitors in 96-well plates at a final volume of 200 μL in binding buffer: 50 mM Tris-HCl (pH 7.4), 2 mM EDTA plus 0.5% BSA. The binding mixtures were incubated at room temperature for 1 h and then were filtered through 96-well GFC plates (Packard) and washed with ice-cold washing buffer: 50 mM Tris-HCl, pH 7.4. Fifty microliters of Microscint-40 were added to each well and the plates were counted in a Topcounter NTX (Packard). The radioligand binding results were analyzed using GraphPad PRISM software.
This binding assay was also performed using GPCR135.
To characterize INSL5 as the possible ligand for GPCR135 and GPCR142, cell membranes from COS-7 cells transiently expressing human GPCR135 or GPCR142 were used in the radioligand binding assays using [^125I)-relaxin3 as the radioligand as described by Liu et al. (2003a, 2003b). […] The binding assays were performed at room temperature for an incubation time of one hour. The binding mixtures were then filtered through GFC filters pre-saturated with 0.3 polyethylenimine (Sigma) and washed with cold binding buffer. The bound radioligand was counted in a top counter (TopCount/NTX, Packard) with Microscint-40. The results were analyzed by Prism 3.0 software.

[2] = molecular target: T2, GPCR142 (Homo sapiens, UniProt Q8TDU9, L329S); assay: GTPγS binding assay, GPCR142 expressing cell membranes; assay type: biochemical; set-up: The complete coding region of human GPCR142 was PCR-amplified from human genomic DNA; expressed in transfected cells; CHO membranes (GTPγS); HEK293 co-transfected with Gα16 (Ca2+)
Protocol: (§1) The GPCR142 expression vector described above was transfected into CHO cells using Lipofectamine (Invitrogen) according to the manufacturer's instructions. Two days after transfection, the cells were harvested and the cell membranes were prepared by homogenizing the cells in cold 50 mM Tris-HCl, 5 mM EDTA, pH 7.5 followed by centrifugation at 4° C. 1000 g for 10 min. The supernatant was centrifuged at 4° C. 20,000 g for 30 min and the pellet was re-suspended in GTPγS binding buffer: 50 mM Tris-HCl, pH 7.4, 10 mM MgCl2, 1 mM EDTA, pH 8.0, and 100 mM NaCl using a polytron tissue homogenizer. Protease inhibitors were added to the buffer at concentrations of 1 mM PMSF, 10 μg/ml of pepstatin A, 10 μg/ml of leupeptin. Cell membranes and different concentrations of ligands were added to 96-well plates and incubated at room temperature for 20 min. ^35S-GTPγS (NEN) was then added to each well at a final concentration of […] in a final volume of 200 μL. The reactions were allowed to proceed at room temperature for 1 h, and then the mixtures were filtered though a 96-well GFC filter plate (Packard) and washed with cold washing buffer: 50 mM Tris-HCl, pH 7.4, 10 mM MgCl2. Fifty microliters of Microscint-40 (Packard) was added to each well and the plate was counted on a top counter (TopCount NTX, Packard).

[3] = molecular target: T2, GPCR142; assay: Ca2+ mobilization assay (FLIPR), HEK293 cells co-expressing GPCR142 and Gα16; assay type: cell-based; set-up: The complete coding region of human GPCR142 was PCR-amplified from human genomic DNA; expressed in transfected cells; HEK293 co-transfected with Gα16 (Ca2+)
Protocol: (§2) Human embryonic kidney (HEK) 293 cells were transfected with GPCR135,.GPCR142 or co-transfected with Gqi5 (Conklin et al. (1993), Nature 363, 274-280) or Gα16 (Amatruda et al. (1991), Proc. Natl. Acad. Sci. U.S.A. 88, 5587-5591) expressing plasmids using LipofectAmine. Two days after transfection, cells were detached with PBS plus 10 mM EDTA. The detached cells were washed with DMEM-F12 medium (without phenol red, Invitrogen) and seeded in black poly-D lysine coated 96-well plates (BD Biosciences, San Jose, Calif.) at a cell density of 50,000 cell/well.

[4] = molecular target: T1, GPCR135; assay: Ca2+ mobilization assay, HEK293 cells co-expressing GPCR135 and Gα16; assay type: cell-based; set-up: expressed in transfected cells; host or cells: HEK293 with Gα16 or Gqi5 (Ca2+)
[5] = molecular target: T1, GPCR135; assay: GTPγS binding assay, GPCR135 expression membranes; assay type: biochemical; set-up: expressed in transfected cells; host or cells: CHO membranes (GTPγS); HEK293 with Gα16 or Gqi5 (Ca2+)
Protocol: as §1
The same assay was performed as described above, except using GPCR135 in place of GPCR142.

[6] = molecular target: T1, GPCR135; assay: Ca2+ mobilization assay, 293 cells co-expressing GPCR135 and Gqi5; assay type: cell-based
Protocol: as §2

T2 sequence (Q8TDU9 whole entry L329S): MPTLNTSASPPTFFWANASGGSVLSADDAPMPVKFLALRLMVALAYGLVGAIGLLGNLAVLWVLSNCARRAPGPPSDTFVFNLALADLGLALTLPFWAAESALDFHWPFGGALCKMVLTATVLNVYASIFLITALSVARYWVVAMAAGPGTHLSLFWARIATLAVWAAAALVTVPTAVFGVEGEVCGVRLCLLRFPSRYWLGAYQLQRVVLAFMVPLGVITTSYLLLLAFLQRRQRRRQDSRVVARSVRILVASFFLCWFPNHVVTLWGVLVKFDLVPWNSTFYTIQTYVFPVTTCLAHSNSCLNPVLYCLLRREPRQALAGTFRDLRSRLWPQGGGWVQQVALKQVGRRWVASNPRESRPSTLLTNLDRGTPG

relaxin3: Human relaxin3 (SEQ ID NO: 6), produced recombinantly; mature peptide of A- and B-chain linked by disulfide bridges
displacement of 125I-relaxin3 binding to GPCR135 [1]: specifically displaced | stimulation of 35S-GTPγS binding (agonist activity) [2]: stimulate | stimulation of 35S-GTPγS binding (agonist activity) ([2]; listed as human recombinant relaxin3): stimulated GTPγS binding | stimulation of Ca2+ mobilization [3]: stimulated Ca2+ mobilization; also recorded: stimulated a strong Ca^2+ signal; also recorded: stimulates Ca^2+ signaling | stimulation of Ca2+ mobilization [4]: stimulated Ca2+ mobilization | stimulation of Ca2+ mobilization ([4]; listed as Relaxin3): stimulated Ca^2+ mobilization | stimulation of GTPγS binding [5]: stimulated GTPγS binding | stimulation of Ca2+ mobilization [6]: stimulates Ca^2+ mobilization
